Source: patent CN102050877A (NAT ENGINEERING RES CT OF ANTIBODY MEDICINE SHANGHAI CO LTD, dated 2011)

Molecular target: T1, 人CD20 (on Raji cells) (human, UniProt P11836 1-297)
T1 construct: whole, on cells; No recombinant CD20 was used; also called Raja
T1 sequence (looked up): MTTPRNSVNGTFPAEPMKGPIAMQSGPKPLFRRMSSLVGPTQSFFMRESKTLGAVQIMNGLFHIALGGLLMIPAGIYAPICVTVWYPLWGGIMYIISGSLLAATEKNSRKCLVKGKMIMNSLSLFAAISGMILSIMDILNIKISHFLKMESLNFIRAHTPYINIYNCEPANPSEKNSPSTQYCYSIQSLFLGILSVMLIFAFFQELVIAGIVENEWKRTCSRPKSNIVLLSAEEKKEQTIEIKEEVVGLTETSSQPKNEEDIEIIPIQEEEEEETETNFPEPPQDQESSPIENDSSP
Assay: in vitro antigen binding on Raji cells (flow cytometry)

binding result: binds
B1: 抗人CD20人源化抗体hu8E4 (hu8E4Hb/hu8E4Lb) (antibody, human IgG1, kappa, V domains shown)
VH: EVQLVESGGGLVQPGGSLRLSCAASGFTFTSYNMHWVRQAPGKGLEWIGAIYPENGDTSYNQKFKDRATLTADKSKNTAYLQMNSLRAEDTAVYYCARWHYYGNGGALDYWGQGTLVTVSS
VL: DIQMTQSPSSLSASVGDRVTITCRASGNIHNYLAWYQQKPGKAPKLLVHNAKTLPDGVPSRFSGSGSGTDFTLTISSLQPEDFATYYCQQFWSNPWTFGQGTKVEIKR
notes: LCDR1 RASGNIHNYLA, LCDR2 NAKTLPD, LCDR3 QQFWSNPWT; The expression constructs carried signal peptides; also called hu8E4VHb/hu8E4VLb
